Data: patent publication US20220259593A1, “CONTROL OF MAMMALIAN GENE DOSAGE USING CRISPR” (The Regents of the University of California, priority 2019, published 2022)

System: K562 CRISPRi cells
Experiment: Constant region variant library pooled growth screen, K562
Assay type: cell-based, human
Conditions: sgRNA constant region variants, un-modified constant region cr995
In short: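 Cells were selected with puromycin for 2 days and then kept in RPMI-1640 spinner cultures, with duplicates handled separately. Targeting sequences comprised 3 sgRNAs per essential gene for 10 genes plus six non-targeting controls. Activities were normalized against pairing with the unmodified scaffold.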

[1] = activity relative to the original
[2] = relative to the original, CRISPRi

B1: cr254 (nucleic acid)
guide: GTTTAAGAGCTAAGCTGGAAACAGCATAGCAAGTTTAAATAAGGCTAGTCCGTTATCAACTTGAAAAAGTGGCACACAGTGTGTGCT
modifications: listed as DNA, chemistry not fully specified
How did the Mean relative activity [1] turn out when B1 was run?
The Mean relative activity was 0.5503.

B2: cr511 (nucleic acid)
guide: GTTTAAGAGCTAAGCTGGAAACAGCATTGCCAGTTTAAATAAGGCTAGTCCGTTATCAACTTGAAAAAGTGGCACCGCGTCGGTGCT
modifications: listed as DNA, chemistry not fully specified
With B2 as the molecule, how does the Mean relative activity [2] read?
Its Mean relative activity is 0.5247.

B3: cr940 (nucleic acid)
guide: GTTTAAGAGCTAAGCTGGAAACAGCATAGCAAGCTTAAATAAGGCTAGTCCGTTATCAACGTGAAAACGTGGCACCGAGTCGGTGCT
modifications: listed as DNA, chemistry not fully specified
B3 was tested. Which Mean relative activity [1] did it give?
The Mean relative activity was 0.5399.

B4: cr005 (nucleic acid)
guide: GCTTAAGAGCTAAGCTGGAAACAGCATAGCAAGTTTAAATAAGGCTAGTCCGTTATCAACTTGAAAAAGTGGCACCGAGTCGGTGCT
modifications: listed as DNA, chemistry not fully specified
With B4 as the molecule, how does the Mean relative activity [2] read?
The Mean relative activity was 0.5108.

B5: cr190 (nucleic acid)
guide: GTTTAAGAGCTAAGCTGGAAACAGCATAGCAAGTTTAAATAAGGCTAGTCCGTAATTAACTTGAAAAAGTGGCACCGAGACGGTGCT
modifications: listed as DNA, chemistry not fully specified
With B5 as the molecule, how does the Mean relative activity [2] read?
Its Mean relative activity is 0.5036.

B6: cr430 (nucleic acid)
guide: GTTTAAGAGCTAAGCTGGAAACAGCATAGCAAGTTTAAATAAGACTAGTTCGTTATCAAATTGAAAAATTGGCACAGAGTCTGTGCT
modifications: listed as DNA, chemistry not fully specified
With B6 as the molecule, how does the Mean relative activity [1] read?
Its Mean relative activity is 0.5328.

B7: cr098 (nucleic acid)
guide: GTTTACGTGCTAAGCTGGAAACAGCATAGCAAGTTTAAATAAGGCTAGTCCGTTATCAACTTGAAAAAGTGGCACCGAGTCGGTGCT
modifications: listed as DNA, chemistry not fully specified
How did the Mean relative activity [1] turn out when B7 was run?
Its Mean relative activity is 0.534.

B8: cr150 (nucleic acid)
guide: GTTTAAGAGCTAAGCTGGAAACAGCATAGCAAGTTTAAATAAGGCTAGTCCGTTATCAACTTGAAAAAGTGGCAGCGAGTCGGTGCT
modifications: listed as DNA, chemistry not fully specified
For B8, which Mean relative activity [2] is on record?
The Mean relative activity was 0.523.

B9: cr675 (nucleic acid)
guide: GTTTAAGAGCTAAGCTGGAAACAGCATAGCAAGCTTAAATAAGGCTAGTCCGTTATCACCTTGAAAAAGGGGCACCGAGTCGGTGCT
modifications: listed as DNA, chemistry not fully specified
Which Mean relative activity [2] does the source give for B9 here?
The Mean relative activity was 0.5084.

B10: cr072 (nucleic acid)
guide: GTCTAAGTGCTAAGCTGGAAACAGCATAGCAAGTTTAAATAAGGCTAGTCCGTTATCAACTTGAAAAAGTGGCACCGAGTCGGTGCT
modifications: listed as DNA, chemistry not fully specified
B10 was tested. Which Mean relative activity [2] did it give?
Its Mean relative activity is 0.5236.

B11: cr659 (nucleic acid)
guide: GTTTAAGAGCTAAGCTGGAAACAGCATAGCAAGTTTACATAAGGCTAGTCCGTTATCAACTTGAAAAAGTGGCACCGAGTCGGTGCT
modifications: listed as DNA, chemistry not fully specified
How did the Mean relative activity [2] turn out when B11 was run?
Its Mean relative activity is 0.504.

B12: cr427 (nucleic acid)
guide: GTTTAAGAGCTAAGCTGGAAACAGCATAGCAAGTTTAAATAAGGCTAGTCCGTTATAAACTTGAAAAAGTGGCACCGAATCGGTGCT
modifications: listed as DNA, chemistry not fully specified
With B12 as the molecule, how does the Mean relative activity [1] read?
The Mean relative activity was 0.5383.

B13: cr265 (nucleic acid)
guide: GTTTAAGAGCTAAGCTGGAAACAGCATAGCAAGTTTAAATAAGGTTAGTCCGTTATCAACTTGAAAAAGTGGCACCGAGTCGGTGCT
modifications: listed as DNA, chemistry not fully specified
B13 was tested. Which Mean relative activity [2] did it give?
Its Mean relative activity is 0.5157.

B14: cr599 (nucleic acid)
guide: GTTTAAGAGCTAAGCTGGAAACAGCATAGCAAGTTTAAATAAGGCTAGCCCGTTATCAACGTGAAAAAGTGGCACCGAGTCGGTGCT
modifications: listed as DNA, chemistry not fully specified
With B14 as the molecule, how does the Mean relative activity [2] read?
Its Mean relative activity is 0.5112.

B15: cr342 (nucleic acid)
guide: GTTTAAGAGCTAAGCTGGAAACAGCATAGCAAGTTTAAATAAGGCTAGTCCGTTATTAACTTGATAAAGTGGCACCGAGTCGGTGCT
modifications: listed as DNA, chemistry not fully specified
How did the Mean relative activity [1] turn out when B15 was run?
The Mean relative activity was 0.5422.

B16: cr255 (nucleic acid)
guide: GTTTAAGAGCTAAGCTGGAAACAGCATAGCAAGCTTAAATAAGGCTAGTCCGTTATCAACTTGAAAAAGTGGGACCGAGTCGGTCCT
modifications: listed as DNA, chemistry not fully specified
With B16 as the molecule, how does the Mean relative activity [2] read?
Its Mean relative activity is 0.5097.

B17: cr548 (nucleic acid)
guide: GTTTAAGAGCTAAGCTGGAAACAGCATAGCAAGTTTAAATAAGGCTAGTCCGTTATCAACTTGAAAAAGTGGCAACGAGTCGGTGCT
modifications: listed as DNA, chemistry not fully specified
B17 was tested. Which Mean relative activity [2] did it give?
Its Mean relative activity is 0.513.

B18: cr724 (nucleic acid)
guide: GTTTAAGAGCTAAGCTGGAAACAGCATAGCAAGTTTAAATAAGGCTAGTCCGTTATCGACTTGAAAAAGTGGCACCGAGTCGGTGCT
modifications: listed as DNA, chemistry not fully specified
B18 was tested. Which Mean relative activity [2] did it give?
Its Mean relative activity is 0.5177.

B19: cr166 (nucleic acid)
guide: GTTTAAGAGCTAAGCTGGAAACAGCATAGCAAGCTTAAATAAGGCTAGTCCGTTATCAACTTGAAAAAGTGGTACCGAGTCGGTACT
modifications: listed as DNA, chemistry not fully specified
B19 was tested. Which Mean relative activity [2] did it give?
The Mean relative activity was 0.5245.

B20: cr814 (nucleic acid)
guide: GTTTAAGAGCTAAGCTGGAAACAGCATAGCAAGTTTAAATAAGGCTAGTCCGTTATCAACTTGAAAAAGTGGGTCCGAGTCGGACCT
modifications: listed as DNA, chemistry not fully specified
For B20, which Mean relative activity [1] is on record?
Its Mean relative activity is 1.048.

B21: cr101 (nucleic acid)
guide: GTTTAAGAGCTAAGCTGGAAACAGCATAGCAAGTTTAAATAAGGCTAGTCCGTTATCAACTTGAAAAAGTGGCGCCGAGTCGGTGCT
modifications: listed as DNA, chemistry not fully specified
For B21, which Mean relative activity [1] is on record?
The Mean relative activity was 1.048.

B22: cr959 (nucleic acid)
guide: GTTTAAGAGCTAAGCTGGAAACAGCATAGCAAGTTTAAATAAGGCTAGTCCGTTATCAATTCGAAATACTGGCACCGAGTCGGTGCT
modifications: listed as DNA, chemistry not fully specified
For B22, which Mean relative activity [1] is on record?
Its Mean relative activity is 0.5251.
